Experimental data published in patent publication US20230407373A1 (priority 2020, published 2023).

B1: LARP7: host protein, UniProt Q4G0J3 (protein, UniProt Q4G0J3 1-582, looked up)
La-related protein 7: METESGNQEKVMEEESTEKKKEVEKKKRSRVKQVLADIAKQVDFWFGDANLHKDRFLREQIEKSRDGYVDISLLVSFNKMKKLTTDGKLIARALRSSAVVELDLEGTRIRRKKPLGERPKDEDERTVYVELLPKNVNHSWIERVFGKCGNVVYISIPHYKSTGDPKGFAFVEFETKEQAAKAIEFLNNPPEEAPRKPGIFPKTVKNKPIPALRVVEEKKKKKKKKGRMKKEDNIQAKEENMDTSNTSISKMKRSRPTSEGSDIESTEPQKQCSKKKKKRDRVEASSLPEVRTGKRKRSSSEDAESLAPRSKVKKIIQKDIIKEASEASKENRDIEISTEEEKDTGDLKDSSLLKTKRKHKKKHKERHKMGEEVIPLRVLSKSEWMDLKKEYLALQKASMASLKKTISQIKSESEMETDSGVPQNTGMKNEKTANREECRTQEKVNATGPQFVSGVIVKIISTEPLPGRKQVRDTLAAISEVLYVDLLEGDTECHARFKTPEDAQAVINAYTEINKKHCWKLEILSGDHEQRYWQKILVDRQAKLNQPREKKRGTEKLITKAEKIRLAKTQQASKHIRFSEYD
B2: ZNF326: host protein, UniProt Q5BKZ1 (protein, UniProt Q5BKZ1 1-582, looked up)
DBIRD complex subunit ZNF326: MDFEDDYTHSACRNTYQGFNGMDRDYGPGSYGGMDRDYGHGSYGGQRSMDSYLNQSYGMDNHSGGGGGSRFGPYESYDSRSSLGGRDLYRSGYGFNEPEQSRFGGSYGGRFESSYRNSLDSFGGRNQGGSSWEAPYSRSKLRPGFMEDRGRENYSSYSSFSSPHMKPAPVGSRGRGTPAYPESTFGSRNYDAFGGPSTGRGRGRGHMGDFGSIHRPGIVVDYQNKSTNVTVAAARGIKRKMMQPFNKPSGTFIKKPKLAKPMEKISLSKSPTKTDPKNEEEEKRRIEARREKQRRRREKNSEKYGDGYRMAFTCSFCKFRTFEEKDIELHLESSSHQETLDHIQKQTKFDKVVMEFLHECMVNKFKKTSIRKQQTNNQTEVVKIIEKDVMEGVTVDDHMMKVETVHCSACSVYIPALHSSVQQHLKSPDHIKGKQAYKEQIKRESVLTATSILNNPIVKARYERFVKGENPFEIQDHSQDQQIEGDEEDEEKIDEPIEEEEDEDEEEEAEEVGEVEEVEEVEEVREGGIEGEGNIQGVGEGGEVGVVGEVEGVGEVEEVEELEEETAKEEPADFPVEQPEEN
B3: ADAR (protein, UniProt P55265 1-1226, looked up)
Double-stranded RNA-specific …: MNPRQGYSLSGYYTHPFQGYEHRQLRYQQPGPGSSPSSFLLKQIEFLKGQLPEAPVIGKQTPSLPPSLPGLRPRFPVLLASSTRGRQVDIRGVPRGVHLRSQGLQRGFQHPSPRGRSLPQRGVDCLSSHFQELSIYQDQEQRILKFLEELGEGKATTAHDLSGKLGTPKKEINRVLYSLAKKGKLQKEAGTPPLWKIAVSTQAWNQHSGVVRPDGHSQGAPNSDPSLEPEDRNSTSVSEDLLEPFIAVSAQAWNQHSGVVRPDSHSQGSPNSDPGLEPEDSNSTSALEDPLEFLDMAEIKEKICDYLFNVSDSSALNLAKNIGLTKARDINAVLIDMERQGDVYRQGTTPPIWHLTDKKRERMQIKRNTNSVPETAPAAIPETKRNAEFLTCNIPTSNASNNMVTTEKVENGQEPVIKLENRQEARPEPARLKPPVHYNGPSKAGYVDFENGQWATDDIPDDLNSIRAAPGEFRAIMEMPSFYSHGLPRCSPYKKLTECQLKNPISGLLEYAQFASQTCEFNMIEQSGPPHEPRFKFQVVINGREFPPAEAGSKKVAKQDAAMKAMTILLEEAKAKDSGKSEESSHYSTEKESEKTAESQTPTPSATSFFSGKSPVTTLLECMHKLGNSCEFRLLSKEGPAHEPKFQYCVAVGAQTFPSVSAPSKKVAKQMAAEEAMKALHGEATNSMASDNQPEGMISESLDNLESMMPNKVRKIGELVRYLNTNPVGGLLEYARSHGFAAEFKLVDQSGPPHEPKFVYQAKVGGRWFPAVCAHSKKQGKQEAADAALRVLIGENEKAERMGFTEVTPVTGASLRRTMLLLSRSPEAQPKTLPLTGSTFHDQIAMLSHRCFNTLTNSFQPSLLGRKILAAIIMKKDSEDMGVVVSLGTGNRCVKGDSLSLKGETVNDCHAEIISRRGFIRFLYSELMKYNSQTAKDSIFEPAKGGEKLQIKKTVSFHLYISTAPCGDGALFDKSCSDRAMESTESRHYPVFENPKQGKLRTKVENGEGTIPVESSDIVPTWDGIRLGERLRTMSCSDKILRWNVLGLQGALLTHFLQPIYLKSVTLGYLFSQGHLTRAICCRVTRDGSAFEDGLRHPFIVNHPKVGRVSIYDSKRQSGKTKETSVNWCLADGYDLEILDGTRGTVDGPRNELSRVSKKNIFLLFKKLCSFRYRRDLLRLSYGEAKKAARDYETAKNYFKKGLKDMGYGNWISKPQEEKNFYLCPV
B4: EIF2AK2 (protein, UniProt P19525 2-551, looked up)
Interferon-induced, …: AGDLSAGFFMEELNTYRQKQGVVLKYQELPNSGPPHDRRFTFQVIIDGREFPEGEGRSKKEAKNAAAKLAVEILNKEKKAVSPLLLTTTNSSEGLSMGNYIGLINRIAQKKRLTVNYEQCASGVHGPEGFHYKCKMGQKEYSIGTGSTKQEAKQLAAKLAYLQILSEETSVKSDYLSSGSFATTCESQSNSLVTSTLASESSSEGDFSADTSEINSNSDSLNSSSLLMNGLRNNQRKAKRSLAPRFDLPDMKETKYTVDKRFGMDFKEIELIGSGGFGQVFKAKHRIDGKTYVIKRVKYNNEKAEREVKALAKLDHVNIVHYNGCWDGFDYDPETSDDSLESSDYDPENSKNSSRSKTKCLFIQMEFCDKGTLEQWIEKRRGEKLDKVLALELFEQITKGVDYIHSKKLIHRDLKPSNIFLVDTKQVKIGDFGLVTSLKNDGKRTRSKGTLRYMSPEQISSQDYGKEVDLYALGLILAELLHVCDTAFETSKFFTDLRDGIISDIFDKKEKTLLQKLLSKKPEDRPNTSEILRTLTVWKKSPEKNERHTC
B5: KRT10 (protein, UniProt P13645 1-584, looked up)
Keratin, type I cytoskeletal …: MSVRYSSSKHYSSSRSGGGGGGGGCGGGGGVSSLRISSSKGSLGGGFSSGGFSGGSFSRGSSGGGCFGGSSGGYGGLGGFGGGSFRGSYGSSSFGGSYGGIFGGGSFGGGSFGGGSFGGGGFGGGGFGGGFGGGFGGDGGLLSGNEKVTMQNLNDRLASYLDKVRALEESNYELEGKIKEWYEKHGNSHQGEPRDYSKYYKTIDDLKNQILNLTTDNANILLQIDNARLAADDFRLKYENEVALRQSVEADINGLRRVLDELTLTKADLEMQIESLTEELAYLKKNHEEEMKDLRNVSTGDVNVEMNAAPGVDLTQLLNNMRSQYEQLAEQNRKDAEAWFNEKSKELTTEIDNNIEQISSYKSEITELRRNVQALEIELQSQLALKQSLEASLAETEGRYCVQLSQIQAQISALEEQLQQIRAETECQNTEYQQLLDIKIRLENEIQTYRSLLEGEGSSGGGGRGGGSFGGGYGGGSSGGGSSGGGHGGGHGGSSGGGYGGGSSGGGSSGGGYGGGSSSGGHGGSSSGGYGGGSSGGGGGGYGGGSSGGGSSSGGGYGGGSSSGGHKSSSSGSVGESSSKGPRY
B6: TOP1 (protein, UniProt P11387 2-765, looked up)
DNA topoisomerase 1: SGDHLHNDSQIEADFRLNDSHKHKDKHKDREHRHKEHKKEKDREKSKHSNSEHKDSEKKHKEKEKTKHKDGSSEKHKDKHKDRDKEKRKEEKVRASGDAKIKKEKENGFSSPPQIKDEPEDDGYFVPPKEDIKPLKRPRDEDDADYKPKKIKTEDTKKEKKRKLEEEEDGKLKKPKNKDKDKKVPEPDNKKKKPKKEEEQKWKWWEEERYPEGIKWKFLEHKGPVFAPPYEPLPENVKFYYDGKVMKLSPKAEEVATFFAKMLDHEYTTKEIFRKNFFKDWRKEMTNEEKNIITNLSKCDFTQMSQYFKAQTEARKQMSKEEKLKIKEENEKLLKEYGFCIMDNHKERIANFKIEPPGLFRGRGNHPKMGMLKRRIMPEDIIINCSKDAKVPSPPPGHKWKEVRHDNKVTWLVSWTENIQGSIKYIMLNPSSRIKGEKDWQKYETARRLKKCVDKIRNQYREDWKSKEMKVRQRAVALYFIDKLALRAGNEKEEGETADTVGCCSLRVEHINLHPELDGQEYVVEFDFLGKDSIRYYNKVPVEKRVFKNLQLFMENKQPEDDLFDRLNTGILNKHLQDLMEGLTAKVFRTYNASITLQQQLKELTAPDENIPAKILSYNRANRAVAILCNHQRAPPKTFEKSMMNLQTKIDAKKEQLADARRDLKSAKADAKVMKDAKTKKVVESKKKAVQRLEEQLMKLEVQATDREENKQIALGTSKLNYLDPRITVAWCKKWGVPIEKIYNKTQREKFAWAIDMADEDYEF
B7: DKC1 (protein, UniProt O60832 2-514, looked up)
H/ACA ribonucleoprotein …: ADAEVIILPKKHKKKKERKSLPEEDVAEIQHAEEFLIKPESKVAKLDTSQWPLLLKNFDKLNVRTTHYTPLACGSNPLKREIGDYIRTGFINLDKPSNPSSHEVVAWIRRILRVEKTGHSGTLDPKVTGCLIVCIERATRLVKSQQSAGKEYVGIVRLHNAIEGGTQLSRALETLTGALFQRPPLIAAVKRQLRVRTIYESKMIEYDPERRLGIFWVSCEAGTYIRTLCVHLGLLLGVGGQMQELRRVRSGVMSEKDHMVTMHDVLDAQWLYDNHKDESYLRRVVYPLEKLLTSHKRLVMKDSAVNAICYGAKIMLPGVLRYEDGIEVNQEIVVITTKGEAICMAIALMTTAVISTCDHGIVAKIKRVIMERDTYPRKWGLGPKASQKKLMIKQGLLDKHGKPTDSTPATWKQEYVDYSESAKKEVVAEVVKAPQVVAEAAKTAKRKRESESESDETPPAAPQLIKKEKKKSKKDKKAKAGLESGAEPGDGDSDTTKKKKKKKKAKEVELVSE

These molecules were tested on gRNA of HCoV-OC43. Conditions: type n_48_v: 48 hours post-infection, infected cells, OC43 Probe I; unweighted spectral count.
Format: binding

Molecule	target (spectral count, OC43 Probe I RNP capture)
B1	6
B2	10
B3	11
B4	8
B5	14
B6	12
B7	6

Same assay, conditions: type n_48_v: 48 hours post-infection, no-probe control on infected cells

Molecule	background (spectral count, no-probe control)
B1	1
B2	2
B3	2
B4	1
B5	3
B6	2
B7	1

The molecules below were run on HCoV-OC43 gRNA and sgRNA. Conditions: 24 hpi; type n_24_v; tested against no-probe control; FDR<10%.
Format: binding

Molecule	target (unweighted spectral count, OC43 Probe II capture)
B2	4

Same assay, conditions: 36 hpi; type n_36_v; tested against no-probe control; FDR<10%

Molecule	target (unweighted spectral count, OC43 Probe II capture)
B1	7
B2	7
B4	4
B6	14

Same assay, conditions: OC43 Probe II, 12 hpi (type n_12_v), infected cells; tested against no-probe control

Molecule	target (unweighted spectral count)
B6	31

Same assay, conditions: OC43 Probe II, 24 hpi (type n_24_v), infected cells; tested against no-probe control

Molecule	target (unweighted spectral count)
B6	12

Same assay, conditions: type n_48_v; 48 hpi; OC43 Probe II capture on infected cells

Molecule	target (unweighted spectral count, OC43 Probe II)
B1	9
B2	8
B3	11
B4	8
B5	22
B7	9

Same assay, conditions: type n_48_v; 48 hpi; no-probe control on infected cells

Molecule	background (unweighted spectral count, no-probe control)
B1	1
B2	2
B3	2
B4	1
B5	3
B7	1

Same assay, conditions: type s_36_m; HCoV-OC43-infected HCT-8 cells, 36 hpi, Probe II

Molecule	target (spectral count)
B1	7
B2	7

Same assay, conditions: type s_36_m; uninfected-probe control, 36 hpi, Probe II

Molecule	background (spectral count)
B1	1
B2	1
